According to article PMC6430397, “The pharmacological properties of 3-arm or 4-arm DOTA constructs for conjugation to α-melanocyte-stimulating hormone analogues for melanoma imaging” (PLoS ONE, 2019):

Experiments:
[1] = Partition coefficient, n-octanol / 0.1 M phosphate buffer; format: physicochemical; conditions: pH 7.4
Procedure: The partition coefficients of ^111In-labeled 3-arm and 4-arm DOTA-α-MSH were measured using 2.0 mL n-octanol as the organic phase and 2.0 mL 0.l M phosphate buffer as the aqueous phase (pH 7.4 for plasma). N-octanol and the buffer were pre-mixed twice using a mechanical mixer for 1 min at room temperature. Then, 20 µL radioactive sample were added and mixed twice using a mechanical mixer for 1 min at room temperature. The radioactivity of 200 uL of each phase was measured after centrifugation. Calculation of log (n-octanol/0.l M phosphate buffer) was performed.

[2] = Biological distribution in B16-F1 melanoma-bearing mice; format: in vivo, mouse; conditions: male, C57BL6, mouse, in vivo, iv, 37 kBq/mouse, total radioactivity, Biological distribution
Procedure: C57BL6 male mice (5 weeks old) were transplanted with B16-F1 cells (5 × 10^5 cells/100 μL) into the thigh of the mice. […] The mice were housed and continuously monitored each day for 2 weeks in a 12-hour light/12-hour dark cycle with free access to food and water. The tumor size reached 8.7 ± 2.8 mm at 2 weeks after transplant of cells. Two mice with tumor sizes of 13 and 15 mm were excluded from our experiments. Mice with a tumor size <10 mm were fasted with no food overnight with water supplied ad libitum before experiments.
For biological distribution studies, B16-F1-bearing mice were administered ^111In-labeled 3-arm or 4-arm DOTA-α-MSH via the tail vein (37 kBq/mouse). At 10, 30, 60, 120, and 180 min after injection, the mice were euthanized under isoflurane (n = 3 per time point), and the following tissues were collected: brain, lung, heart, stomach, liver, small intestine, large intestine, kidney, blood, muscle, and B16-F1 melanoma. Tissues were weighed, and radioactivity was quantified using an automated γ-ray counter to calculate the percent injected dose (%ID) or percent injected dose per gram of tissue (%ID/g).
For SPECT imaging, ^111In-labeled 3-arm or 4-arm DOTA-α-MSH was injected into the tail vein of four B16-F1-bearing mice in total (37 MBq/mouse). For SPECT imaging, acquisition was started at 10 min after injection and continued every 10 min for 180 min. The data were reconstructed using the ordered subset expectation maximization method with 16 subsets and six iterations including no scatter and attenuation correction. The voxel size was set to 0.8×0.8×0.8 mm. Post-reconstruction smoothing filtering was applied using a 1.0-mm Gaussian filter. […] In these images, three to five regions of interest were placed over the kidney, muscle, and B16-F1 melanoma in which accumulation could be seen, and the time activity curve of each was obtained as the %ID/g.

[3] = target: T1, MC1-R (Mus musculus, UniProt Q01727); conditions: endogenous ligand; cited from earlier work
T1 construct: host or cells: B16-F1 mouse melanoma cells
T1 sequence (Q01727 whole entry): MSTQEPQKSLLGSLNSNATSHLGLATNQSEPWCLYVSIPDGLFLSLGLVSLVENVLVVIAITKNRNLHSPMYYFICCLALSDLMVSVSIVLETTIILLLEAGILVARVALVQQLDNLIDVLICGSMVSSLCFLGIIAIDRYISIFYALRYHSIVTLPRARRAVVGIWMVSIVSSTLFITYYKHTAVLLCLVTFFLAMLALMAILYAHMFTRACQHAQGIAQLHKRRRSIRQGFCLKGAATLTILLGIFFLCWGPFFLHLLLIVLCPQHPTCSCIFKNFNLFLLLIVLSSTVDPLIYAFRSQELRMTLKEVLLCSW
Source text: The melanocortin 1 receptor (MC1-R) is one of the most targeted melanoma antigens and belongs to the melanocortin family of G protein-coupled receptors, which consists of five receptor subtypes, MC1-R to MC5-R. MC1-R is expressed in nearly all primary and metastatic melanomas and 95% of uveal melanomas. MC1-R is an attractive receptor for molecular-targeted imaging and radionuclide therapy of melanoma. α-melanocyte-stimulating hormone (α-MSH), a tridecapeptide, is an endogenous ligand for the melanocortin family of receptors, with subnanomolar binding affinity to MC1-R [5].

CSCC[C@H](NC(=O)[C@H](CO)NC(=O)[C@H](Cc1ccc(O)cc1)NC(=O)[C@H](CO)NC(C)=O)C(=O)N[C@@H](CCC(=O)O)C(=O)N[C@@H](Cc1c[nH]cn1)C(=O)N[C@@H](Cc1ccccc1)C(=O)N[C@@H](CCCNC(=N)N)C(=O)N[C@@H](Cc1c[nH]c2ccccc12)C(=O)NCC(=O)N[C@@H](CCCCNC(=O)CN1CCN(CC(=O)O)CCN(CC(=O)O)CCN(CC(=O)O)CC1)C(=O)N1CCC[C@H]1C(=O)N[C@H](C(=O)O)C(C)C [^111In-labeled 3-arm DOTA-α-MSH, metal not drawn]
logD [1]: -0.28 ± 0.03 | tissue uptake at 10 min ([2]; Blood): 3.11 %ID/g | tissue uptake at 0.5 h ([2]; Blood): 1.91 %ID/g | tissue uptake at 1 h ([2]; Blood): 0.89 %ID/g | tissue uptake at 2 h ([2]; Blood): 0.21 %ID/g | tissue uptake at 3 h ([2]; Blood): 0.05 %ID/g | tissue uptake at 10 min ([2]; Brain): 0.04 %ID/g | tissue uptake at 0.5 h ([2]; Brain): 0.05 %ID/g | tissue uptake at 1 h ([2]; Brain): 0.05 %ID/g | tissue uptake at 2 h ([2]; Brain): 0.03 %ID/g | tissue uptake at 3 h ([2]; Brain): 0.02 %ID/g | tissue uptake at 10 min ([2]; Heart): 0.74 %ID/g | tissue uptake at 0.5 h ([2]; Heart): 0.66 %ID/g | tissue uptake at 1 h ([2]; Heart): 0.46 %ID/g | tissue uptake at 2 h ([2]; Heart): 0.14 %ID/g | tissue uptake at 3 h ([2]; Heart): 0.06 %ID/g | tissue uptake at 10 min ([2]; Kidney): 23.6 %ID/g | tissue uptake at 0.5 h ([2]; Kidney): 18.4 %ID/g | tissue uptake at 1 h ([2]; Kidney): 11.9 %ID/g | tissue uptake at 2 h ([2]; Kidney): 8.42 %ID/g | tissue uptake at 3 h ([2]; Kidney): 7.07 %ID/g | tissue uptake dose at 10 min ([2]; Large intestine): 0.03 %ID | tissue uptake dose at 0.5 h ([2]; Large intestine): 0.08 %ID | tissue uptake dose at 1 h ([2]; Large intestine): 0.09 %ID | tissue uptake dose at 2 h ([2]; Large intestine): 0.05 %ID | tissue uptake dose at 3 h ([2]; Large intestine): 0.04 %ID | tissue uptake at 10 min ([2]; Liver): 2.3 %ID/g | tissue uptake at 0.5 h ([2]; Liver): 1.15 %ID/g | tissue uptake at 1 h ([2]; Liver): 1.12 %ID/g | tissue uptake at 2 h ([2]; Liver): 1.23 %ID/g | tissue uptake at 3 h ([2]; Liver): 0.72 %ID/g | tissue uptake at 10 min ([2]; Lung): 0.51 %ID/g | tissue uptake at 0.5 h ([2]; Lung): 0.66 %ID/g | tissue uptake at 1 h ([2]; Lung): 0.31 %ID/g | tissue uptake at 2 h ([2]; Lung): 0.27 %ID/g | tissue uptake at 3 h ([2]; Lung): 0.1 %ID/g | tissue uptake at 10 min ([2]; Melanoma): 1.71 %ID/g | tissue uptake at 0.5 h ([2]; Melanoma): 1.81 %ID/g | tissue uptake at 1 h ([2]; Melanoma): 2.49 %ID/g | tissue uptake at 2 h ([2]; Melanoma): 3.36 %ID/g | tissue uptake at 3 h ([2]; Melanoma): 3.51 %ID/g | tissue uptake at 10 min ([2]; Muscle): 0.21 %ID/g | tissue uptake at 0.5 h ([2]; Muscle): 0.2 %ID/g | tissue uptake at 1 h ([2]; Muscle): 0.15 %ID/g | tissue uptake at 2 h ([2]; Muscle): 0.09 %ID/g | tissue uptake at 3 h ([2]; Muscle): 0.05 %ID/g | tissue uptake dose at 10 min ([2]; Small intestine): 0.04 %ID | tissue uptake dose at 0.5 h ([2]; Small intestine): 0.08 %ID | tissue uptake dose at 1 h ([2]; Small intestine): 0.09 %ID | tissue uptake dose at 2 h ([2]; Small intestine): 0.12 %ID | tissue uptake dose at 3 h ([2]; Small intestine): 0.1 %ID | tissue uptake dose at 10 min ([2]; Stomach): 0.06 %ID | tissue uptake dose at 0.5 h ([2]; Stomach): 0.1 %ID | tissue uptake dose at 1 h ([2]; Stomach): 0.12 %ID | tissue uptake dose at 2 h ([2]; Stomach): 0.11 %ID | tissue uptake dose at 3 h ([2]; Stomach): 0.12 %ID

α-melanocyte-stimulating hormone [α-MSH]
binding affinity to MC1-R [3]: subnanomolar
